{"source": "the PETadex activity labels (doi:10.1042/bj20051645)", "proteins": {"B1": {"name": "unnamed (protein)", "chain": "MMNFNNVFRWHLPFLFLVLLTFRAAAADTLLILGDSLSAGYRMSASAAWPALLNDKWQSKTSVVNASISGDTSQQGLARLPALLKQHQPRWVLVELGGNDGLRGFQPQQTEQTLRQILQDVKAANAEPLLMQIRLPANYGRRYNEAFSAIYPKLAKEFDVPLLPFFMEEVYLKPQWMQDAGIHPNRDAQPFIADWMAKQLQPLVNHDS"}, "B2": {"name": "unnamed (protein)", "chain": "B1 chain with G70A, A180D"}, "B3": {"name": "unnamed (protein)", "chain": "B1 chain with N99A, A180D"}, "B4": {"name": "unnamed (protein)", "chain": "B1 chain with A180D, H183A"}, "B5": {"name": "unnamed (protein)", "chain": "B1 chain with A180D"}, "B6": {"name": "unnamed (protein)", "chain": "B1 chain with S36A, A180D"}}, "note": "Substitutions are numbered along the chain they refer to."}
{"substrate": "p-NP-C4", "conditions": "pH 7; 37 °C", "units": {"Km": "µM", "kcat": "s⁻¹", "kcat/Km": "M⁻¹ s⁻¹"}}
{"protein": "B1", "Km": 1880, "kcat": 5.98, "kcat/Km": 3180}
{"protein": "B2", "Km": 1100, "kcat": 3.16, "kcat/Km": 2870}
{"protein": "B3", "Km": 1660, "kcat": 12, "kcat/Km": 7220}
{"protein": "B4", "Km": 610, "kcat": 0.0093, "kcat/Km": 15.2}
{"protein": "B5", "Km": 870, "kcat": 15.3, "kcat/Km": 17600}
{"protein": "B6", "Km": 1550, "kcat": 0.16, "kcat/Km": 103}
